Measured values reported in US20240034764A1.

Target: IL-10Rα receptor on MC/9 mouse mast cells (mouse) (UniProt Q61727)
Assay: cell-based or functional assay

UniProt Q61727, sequence (Q61727 17-575): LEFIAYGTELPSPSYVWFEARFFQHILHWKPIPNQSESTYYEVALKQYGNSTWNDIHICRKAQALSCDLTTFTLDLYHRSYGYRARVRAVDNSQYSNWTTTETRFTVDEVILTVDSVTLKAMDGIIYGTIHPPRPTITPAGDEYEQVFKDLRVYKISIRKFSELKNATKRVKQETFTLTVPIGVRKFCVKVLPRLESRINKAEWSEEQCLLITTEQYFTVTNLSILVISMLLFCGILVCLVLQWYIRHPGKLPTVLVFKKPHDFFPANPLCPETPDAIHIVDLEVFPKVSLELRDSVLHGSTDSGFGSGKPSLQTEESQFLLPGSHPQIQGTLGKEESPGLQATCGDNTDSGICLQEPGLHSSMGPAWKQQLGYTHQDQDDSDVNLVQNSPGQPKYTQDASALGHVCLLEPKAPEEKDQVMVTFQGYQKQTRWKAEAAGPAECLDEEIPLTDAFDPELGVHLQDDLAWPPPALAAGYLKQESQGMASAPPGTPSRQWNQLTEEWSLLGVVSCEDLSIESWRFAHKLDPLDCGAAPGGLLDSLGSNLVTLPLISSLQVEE

half maximal effective concentration (EC50), proliferation of MC/9 cells in the presence of IL4 (Alamar Blue): 0.0917 nM
Substance: recombinant human IL-10 (Peprotech catalog number 200-10) (from UniProt P22301 19-178) (ligand)
